Reference: the DeepSol protein solubility set

assay: soluble on expression in E. coli; label from the status in PepcDB or PDB records

Q: For “MSLPNRLLITNASIAKMDEPDDGYGLMMHAALLIQDEKIEWLGSVSDIPAGLGDPEELDACGRLLTPALIDCHTHIVHGGNRAREFEMRLEGASYEEIARAGGGIISTVTATRETDEAALLQDALKRADSLIAEGVSLIEIKSGYGLDVETELKMLRVARAIERERSVRVVTSFLGAHAVPKGADADFYIDKVCIPALEAAHKEGLVDAVDGFCEGIAFDTVQMGRLFERARQLDIPVKLHAEQLSNIGGTKLAASYNALSVDHVEYADKTDIAAMAKAGSVAVLLPGAFYTLHETQKPLVEAFRSESVPMAVATDWNPGSSPMGSLLLAMNMSCTLFGLTPVEALAGTTRNAARALGLKDCGIVAPGKRADLAIWDVLEPAELSYRFGVNPLHRRIFGGRLEGHHHHHH”, which “soluble on expression in E. coli” value is on record?
A: soluble

Q: Which “soluble on expression in E. coli” value does the source give for “AEVLLGSSDGGLAFVPSDLSIASGEKITFKNNAGFPHNDLFDKKEVPAGVDVTKISMPEEDLLNAPGEEYSVTLTEKGTYKFYCAPHAGAGMVGKVTVN” here?
A: soluble

Q: Which “soluble on expression in E. coli” value does the source give for “GINAGKMAMIVTDKGEQVTKAINACCNRGSTILKGMGGYKMDKKEVVICACNNKEMFFVQQVVKEVDPAAFTVVLESNEVHGEGFKMFQIGEGNVTVQTGLRSCCADRAKMQRQ” here?
A: not soluble

Q: Which “soluble on expression in E. coli” value does the source give for “MNVVIVRYGEIGTKSRQTRSWFEKILMNNIREALVTEEVPYKEIFSRHGRIIVKTNSPKEAANVLVRVFGIVSISPAMEVEASLEKINRTALLMFRKKAKEVGKERPKFRVTARRITKEFPLDSLEIQAKVGEYILNNENCEVDLKNYDIEIGIEIMQGKAYIYTEKIKGWGGLPIGTEGRMIGILHDELSALAIFLMMKRGVEVIPVYIGKDDKNLEKVRSLWNLLKRYSYGSKGFLVVAESFDRVLKLIRDFGVKGVIKGLRPNDLNSEVSEITEDFKMFPVPVYYPLIALPEEYIKSVKERLGL” here?
A: soluble

Q: Which “soluble on expression in E. coli” value does the source give for “DQALSGQLRIGASDTIGNQVAPYLLSEFRQQTNHRSQSLFISNSAQICDMLTDYELDIALIEGKTLHPELQSTQFSEDEMCVICAPDYPAAHEGPVNLTELENSEWILREAGSGSREFFMRVVAPRLEHWHEAFQLNTTEAL” here?
A: not soluble

Q: For “MLAKSIPLGIYEKALPAGECWLERLKLAKALGFDFVEMSLDETDARLARLDWSPEQRLALVKAVAETGVRVPSMCLSAHRRFPLGSEDDAVRHQGLEIMRKAIQLAQDVGIRVIQLAGYDVYYQQANDETRRRFRDGLKQSVEMASRAQVTLAMEIMDYPLMNSISKALGYAHYLNNPWFQLYPDIGNLSAWDNDVQMELKAGSGHIVAVHVKDTKPGVFKNVPFGEGVVDFERCFETLKQTGYCGPYLIEMWSETSADPLAEVAKARDWVKARMARAGLMEAA”, which “soluble on expression in E. coli” value is on record?
A: not soluble

Q: For “MGSDKIHHHHHHMKTSVKFETIFPLTTAPLIQCITNEITCESMANALLYIDAKPIMADDPREFPQMFQQTSALVLNLGHLSQEREQSLLAASDYARQVNKLTVVDLVGYGASDIRNEVGEKLVHNQPTVVKGNLSEMRTFCQLVSHGRGVDGSPLDQSEEAIEELIQALRQQTQKFPQTVFLATGIQDVLVSQEQVIVLQNGVPELDCFTGTGDLVGALVAALLGEGNAPMTAAVAAVSYFNLCGEKAKTKSQGLADFRQNTLNQLSLLMKEKDWFEAVKGRVL”, which “soluble on expression in E. coli” value is on record?
A: not soluble

Q: For “MAYDIFLKIDGIDGESMDDKHKNEIEVLSWRWNIHQESTMHAGSGLGSGKVSVTNLDFDHYIDRASPNLFKYCASGKHIPQAILVMRKAGGNPLEYLKYTFTDLIVAVVSPSGSHDGEIASRETVELSFSTVKQEYVVQNQQGGSGGTITAGYDFKANKEI”, which “soluble on expression in E. coli” value is on record?
A: not soluble

Q: With “MIFGRTERGKPPVEPVTLKILVAGGFGVGKTTLVGAVSEIRPLRTEEVLTEAGRPVDDISGVEGKHTTTVAMDFGRITLREDLVLYLFGTPGQDRFWFLWDELATGALGAVVLADTRRLEDCFAAVDYFERRSIPFVMGVNCFEEAARYPVEDVRRALDLDDDVPVVLCDARDRESVKEVLIDVVRHAMAHAAERRETVSGLEHHHHHH” as the sequence, how does the “soluble on expression in E. coli” value read?
A: not soluble

Q: For “GFSSEVLKKAYDDTEDIEDQLQQAEGRLFEISQHNMKQDVQPIDPIIKEALGEIQIAANRKEGLSGQPSGFPAIDKLTAGWQASDLIIIAARPAMGKTAFVLSMAKNMAIDYNIPVAIFNLEMSSVQLVKRLMSNVCEIPGEKLKTGRLESHEWVQLDTKLKDFENKPLYIDDTPSLSVFELRTKSRRLVREYGVKVIIIDYLQLMNASGMSFGNREQEVSTISRSLKVLAKELKIPIIALSQLNRSVETRQGDINSKRPQLSDLRESGAIEQDADMVCFIHRPEYYKITEDQQGNSLLGIGEFIIAKHRNGPVDDVRLRFRSEFAKFLPLEAESMVKRHSRIGGSPVEMGVGNGSFAPPLPPPEDNPLLSGPYSSGTSEADFLAEASGIDNPF”, which “soluble on expression in E. coli” value is on record?
A: not soluble

Q: For “MTEASIKLGTTSDKLEYEVIDKGSNGFLGIGSRDAVIKVKKAEASVEDEIREFLDSVFKAMKLEVTIDIKVDEDNRNVDVELNGPEMGVLIGKRGQTLDSLQYLTNLAINKQSENYYRVKIDTEDYRKRRRETLENLAKNISFKVKRTKRPVSLEPMNPFERRVIHSALQNDRFVETHSEGDEPYRHVVVTLKK”, which “soluble on expression in E. coli” value is on record?
A: not soluble

Q: Which “soluble on expression in E. coli” value does the source give for “MASSSSTLPLHMYIRPLIIEDLKQILNLESQGFPPNERASEEIISFRLINCPELCSGLFIREIEGKEVKKETLIGHIMGTKIPHEYITIESMGKLQVESSNHIGIHSVVIKPEYQKKNLATLLLTDYIQKLSNQEIGNKIVLIAHEPLIPFYERVGFKIIAENTNVAKDKNFAEQKWIDMERELIKEEYDN” here?
A: soluble

Q: Which “soluble on expression in E. coli” value does the source give for “MRVKTGVVRRRRHKKVLKLARGFYSGRRKHFRKAKEQLERSMYYAFRDRKQKKREFRSLWVVRINAACRMHNTSYSRFMHALKVANIELDRKVLADMAMNDMQAFTSVLESVKEHLLEHHHHHH” here?
A: soluble

Q: With “MAHHHHHHMKTFRYLTITGDTITLRRGARHVMHLLLTLERAPYDTRLNLEFVSLAHMRQLNYKYKGLDRPTDVLTFAPAGEADSFVNDLLFGDFLERGDGDKGTGATLTASPTCAAAVGAGPNALTQSIIRGELVDLGNIFVSLDYMRLRCRRYPSTTLPLAPYLHAALVHATLHALGYDHTSRALLQQMARREQQLGRQLAMIARQHPRCLPPLNIWDSM” as the sequence, how does the “soluble on expression in E. coli” value read?
A: not soluble

Q: With “GPGSMHAAPYEEVALSDMLLEDGKLRYPCPCGDLFELSLSEFAKGSVVAECPTCSLTVRIICNEEERHAFLLRCNALNGVRDVVIA” as the sequence, how does the “soluble on expression in E. coli” value read?
A: not soluble

Q: With “AMVSVSGIRKVQRAEGPATVLAIGTANPPNCVDQSTYADYYFRVTNSEHMTDLKKKFQRICERTQIKNRHMYLTEEILKENPNMCAYKAPSLDAREDMMIREVPRVGKEAATKAIKEWGQPMSKITHLIFCTTSGVALPGVDYELIVLLGLDPSVKRYMMYHQGCFAGGTVLRLAKDLAENNKDARVLIVCSENTSVTFRGPSETDMDSLVGQALFADGAAAIIIGSDPVPEVENPLFEIVSTDQQLVPNSHGAIGGLLREVGLTFYLNKSVPDIISQNINDALSKAFDPLGISDYNSIFWIAHPGGRAILDQVEEKVNLKPEKMKATRDVLSNYGNMSSACVFFIMDLMRKKSLEAGLKTTGEGLDWGVLFGFGPGLTIETVVLRSMAI” as the sequence, how does the “soluble on expression in E. coli” value read?
A: soluble

Q: With “MIYFQTKDDAFFTLASEQEADKPHREHLLDLTLGKGRKRKSSEVLRRGRLAACGLSFVVKNTLGELVGSVRLWHVQFNKGHNEIQHALLLGPLAVAAECSGIGIGSALMRHAIATAKKMGYGAIFLVGDCAFYQRFGFSSSLTKNLAMPGPYEKHRFQALELIPHYLTSCHGILTPSGELEDWNSFQHHKVA” as the sequence, how does the “soluble on expression in E. coli” value read?
A: not soluble

Q: Which “soluble on expression in E. coli” value does the source give for “MPCQKKSNPTELHISTGREIVQRNFVFRNTTGKDFLLKLHATNEAVTFPTEVFRFPPLAHRAIQFRVNSSKLSQWDKMNLLIKGYVLPIYAKSLKQFIDQKKTAGTKEQEAFSLSVKFTDQFSAPQTVINLPGYATCIESTDYPVDVEELDTTTAVNIERDVSTAVPIGSMMGFVEEYKRRQLNKGCWFSNYICGTEKQPEKQSMRSSRRSSRSSNHSAKSSKACRIQANKKNKSDVNVCLEATPCGGSTIQA” here?
A: not soluble

Q: Which “soluble on expression in E. coli” value does the source give for “MGSDKIHHHHHHMKRIVCPKDYYNEQGLLLSAKGTKITLSQFLRLQRKYDFLSETEANERTLASYEKIKQKICRKDERYKRADDQLLDQASALLVNIVFESKRKPWYMYLTALGNHINWLYTHSIDVALLSLMMAIESGVSQRSLWDLGVGGILHDVGKLLIPKKIIQKRTELSDIEKDILRQHCELGVECTTDCAFPILSQDIIAQHHERLDGSGYPNQLQEGQINEYVKIVMIADAFDTITAGRPYRKTVEVEEALAYLEDQEGAFSRMYLETLKNILVRP” here?
A: not soluble
